The results in this text go back to patent US20240409639A1 (CELLDEX THERAPEUTICS, published 2024).

Experiment [1] deals with T1, human PD-1 expressed on cells (human, UniProt Q15116 25-288).
T1 construct: whole, on cells; also called HEK293 cells expressing human PD-1; PD1 Effector cells
The experiment is described as follows: flow cytometry on HEK293 cells expressing human PD-1. Here is the method: After 20 minutes, the cells were washed with PBS containing 0.1% BSA and 0.05% NaN₃ (PBA) and the bound antibodies were detected by incubating the cells with a PE labeled goat anti-human IgG Fc-specific probe. The excess probe was washed from the cells with PBA and the cell associated fluorescence was determined by analysis using a FACSCanto II™ instrument (BD Biosciences, NJ, USA) according to the manufacturer's directions.
(Flow cytometry measures light scatter and fluorescence of single cells or particles in a stream.)

Experiment [2] deals with T2, recombinant human PD-1-msFc (human, UniProt Q15116 25-167, limits assumed).
T2 construct: not shown: mouse Fc ('msFc')
The experiment is described as follows: ELISA, plate coated with recombinant human PD-1-msFc. Here is the method:
Microtiter plates were coated with recombinant human PD-1-msFc in PBS, and then blocked with 5% bovine serum albumin in PBS. […] The plates were washed with PBS/Tween and then incubated with a goat-anti-human IgG Fc-specific polyclonal reagent conjugated to horseradish peroxidase at 37° C. After washing, the plates were developed with HRP substrate, and analyzed at OD 450 using a microtiter plate reader.
For orientation: ELISA stands for enzyme-linked immunosorbent assay.

T2 sequence (Q15116 25-167 limits assumed): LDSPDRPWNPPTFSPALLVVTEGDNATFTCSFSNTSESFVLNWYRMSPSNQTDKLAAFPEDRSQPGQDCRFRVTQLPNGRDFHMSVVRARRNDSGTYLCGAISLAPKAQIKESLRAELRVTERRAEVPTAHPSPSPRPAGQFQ
T1 sequence (Q15116 25-288): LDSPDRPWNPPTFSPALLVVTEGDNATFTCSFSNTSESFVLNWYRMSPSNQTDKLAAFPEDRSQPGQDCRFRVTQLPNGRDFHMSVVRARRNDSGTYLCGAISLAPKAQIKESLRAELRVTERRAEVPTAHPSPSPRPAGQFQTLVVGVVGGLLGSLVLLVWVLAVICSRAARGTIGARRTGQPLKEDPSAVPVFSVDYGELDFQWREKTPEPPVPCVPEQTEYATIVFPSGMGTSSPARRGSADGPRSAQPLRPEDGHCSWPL

B1: bispecific construct CDX-585 (bispecific antibody, human IgG1, kappa)
heavy: QVQLVQSGAEVVKPGASVKISCKASGYTFTDYVMHWVRQAPGQSLEWMGVISTYHIPAVYNQKFKGKATMTVDTSTSTVYLELSSLRSEDTAVYYCAREVYGESYYFDVWGQGTTVTVSSASTKGPSVFPLAPSSKSTSGGTAALGCLVKDYFPEPVTVSWNSGALTSGVHTFPAVLQSSGLYSLSSVVTVPSSSLGTQTYICNVNHKPSNTKVDKKVEPKSCDKTHTCPPCPAPEAQGGPSVFLFPPKPKDTLYITREPEVTCVVVDVSHEDPEVKFNWYVDGVEVHNAKTKPREEQYNSTYRVVSVLTVLHQDWLNGKEYKCQVSNKALPAPIEKTISKAKGQPREPQVYTLPPSRDELTKNQVSLTCLVKGFYPSDIAVEWESNGQPENNYKTTPPVLDSDGSFFLYSKLTVDKSRWQQGNVFSCSVMHEALHNHYTQKSLSLSPGKGSSGGGGSDIQMTQSPSSLSASVGDRVTITCRASENIYSYLAWYQQKPGKAPKFLVYNADTLAEGVPSRFSGSGSGTDFTLTISSLQPEDFATYYCQHHYGTPFTFGCGTKLEIKGGGGSGGGGSGGGGSGGGGSQVQLVQSGAEVKKPGASVKVSCKASGYSFTGYTMHWVRQAPGQCLEWMGLINPYTGGTDYNQKFQGRVTMTVDRSTSTAYMELSSLRSEDTAVYYCARERPGGSQFIYYYALDYWGQGTTVTVSS
light: DIVMTQTPLSLPVTPGEPASISCRSSQSIVHSAGNTYLEWYLQKPGQSPQLLIYKVSNRFSGVPDRFSGSGSGTDFTLKISRVEAEDVGVYYCFQGSHVPYTFGGGTKVEIKRTVAAPSVFIFPPSDEQLKSGTASVVCLLNNFYPREAKVQWKVDNALQSGNSQESVTEQDSKDSTYSLSSTLTLSKADYEKHKVYACEVTHQGLSSPVTKSFNRGEC
notes: Tetravalent format, bivalent for each target; The Fc carries L234A, L235Q, K322Q (AQQ) and M252Y, S254T, T256 (YTE); The scFv is stabilised by a disulfide from Gly to Cys at positions 558 and 629 of the mature heavy chain; also called E1A9-7B1; bsAb
Turning to B1, the binding result in experiment [1] and in experiment [2] was “binds” each time.
